Data taken from publication PMC12661925 (Structure (London, England : 1993), 2025).
Read-outs that look alike come from different tables or passages of the source.

T1: Cas1-2/3 integrase (StrepII-Cas1 + Cas2/3 fusion) (Pseudomonas aeruginosa PA14, UniProt Q02ML7;Q02ML8 1-324;1-1076)
T1 sequence 1: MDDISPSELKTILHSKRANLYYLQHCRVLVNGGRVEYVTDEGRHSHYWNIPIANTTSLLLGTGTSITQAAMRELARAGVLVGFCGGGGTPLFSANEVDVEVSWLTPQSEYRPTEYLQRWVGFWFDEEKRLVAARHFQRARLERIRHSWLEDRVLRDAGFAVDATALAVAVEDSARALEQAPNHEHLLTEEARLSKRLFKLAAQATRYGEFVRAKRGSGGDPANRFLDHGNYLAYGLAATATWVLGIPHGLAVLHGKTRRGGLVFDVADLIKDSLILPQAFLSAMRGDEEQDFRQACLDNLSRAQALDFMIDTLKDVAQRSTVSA
T1 sequence 2: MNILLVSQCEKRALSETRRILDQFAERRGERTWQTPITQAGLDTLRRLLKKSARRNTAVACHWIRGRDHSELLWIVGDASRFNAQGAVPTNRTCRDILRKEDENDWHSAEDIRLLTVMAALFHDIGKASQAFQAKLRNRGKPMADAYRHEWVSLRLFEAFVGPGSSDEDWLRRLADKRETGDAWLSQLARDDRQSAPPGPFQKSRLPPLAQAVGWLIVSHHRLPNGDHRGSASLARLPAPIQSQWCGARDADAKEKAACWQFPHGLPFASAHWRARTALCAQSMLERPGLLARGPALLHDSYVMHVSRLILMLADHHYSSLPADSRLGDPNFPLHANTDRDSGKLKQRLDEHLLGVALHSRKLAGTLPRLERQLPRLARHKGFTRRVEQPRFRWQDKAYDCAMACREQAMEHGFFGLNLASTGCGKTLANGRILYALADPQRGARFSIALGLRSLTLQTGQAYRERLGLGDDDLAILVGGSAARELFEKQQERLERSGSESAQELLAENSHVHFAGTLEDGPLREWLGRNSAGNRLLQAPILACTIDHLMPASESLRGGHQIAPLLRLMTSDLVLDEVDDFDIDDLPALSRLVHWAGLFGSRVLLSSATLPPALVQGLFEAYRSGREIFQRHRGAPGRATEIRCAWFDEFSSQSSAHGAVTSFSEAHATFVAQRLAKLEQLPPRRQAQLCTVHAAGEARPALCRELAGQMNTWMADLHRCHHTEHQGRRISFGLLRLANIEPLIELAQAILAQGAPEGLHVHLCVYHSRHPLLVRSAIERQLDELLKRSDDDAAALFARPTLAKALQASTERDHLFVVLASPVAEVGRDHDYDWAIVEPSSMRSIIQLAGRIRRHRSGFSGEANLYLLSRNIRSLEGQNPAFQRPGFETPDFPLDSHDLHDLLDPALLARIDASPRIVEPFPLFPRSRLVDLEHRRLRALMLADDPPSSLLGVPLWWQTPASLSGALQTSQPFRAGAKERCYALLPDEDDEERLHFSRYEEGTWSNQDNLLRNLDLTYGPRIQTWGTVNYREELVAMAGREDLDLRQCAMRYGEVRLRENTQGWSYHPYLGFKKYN

B1: Cas1 from the PA14 strain of Pseudomonas aeruginosa (type I-F), StrepII-tagged (enzyme, Pseudomonas aeruginosa (strain PA14))
chain: T1 sequence 1
B2: Cas2/3 fusion protein from the PA14 strain of Pseudomonas aeruginosa (type I-F), untagged (enzyme, Pseudomonas aeruginosa (strain PA14))
chain: T1 sequence 2
B3: Figure 3 foreign DNA, PAM on one strand (34/32 nt) (dsDNA)
DNA 1: AAAAACCTGGACTACTACAACCTTCGCTTTTTGG
DNA 2: TTTTTGCGAAGGTTGTAGTAGTCCAGGAAAAA
B4: Figure 4 foreign DNA with PAM (34/34 nt) (dsDNA)
DNA 1: TACATGCTCTAGCAAAACGACTTGCACAACGAGG
DNA 2: CCATTAAGTGCAAGTCGTTTTGCTAGAGCTACAT
B5: Figures 4 and 5 foreign DNA without PAM (32/32 nt) (dsDNA)
DNA 1: TACATGCTCTAGCAAAACGACTTGCACAACGA
DNA 2: ATTAAGTGCAAGTCGTTTTGCTAGAGCTACAT

What was measured:
[1] = target: the molecule itself; assay: cryo-EM structure
[2] = target: T1, Cas1-2/3 integrase (StrepII-Cas1 + …); assay: cryo-EM
[3] = target: T1, Cas1-2/3 integrase (StrepII-Cas1 + …); assay: cryo-EM; remark: listed apart in the source

Row | Binder | binding result [1] | binding result [3] | other results
1 | B1 | binds |  | 
2 | B2 | binds |  | 
3 | B3 |  |  | binding result [2]: binds
4 | B4 |  | binds | 
5 | B5 |  | binds | 
